Reference: US20230365712A1

Target: Notch4^GFP expressed in transfected Jurkat cells

Jagged1 (ligand)
Notch4-GFP positive cells (%), Jagged1 without mAb: 53.5%
